Here are results for five molecules from US20220204643A1 (published 2022).

Assay [1] concerns the target T1, microtubule associated protein RP/EB family member 2, transcript variant 1 (human, UniProt Q15555 1-327).
T1 construct: also called MAPRE2

The target of assay [2] is T2, interleukin 27 receptor subunit alpha (human, UniProt Q6UWB1 33-636, limits assumed).
T2 construct: also called IL27RA
T2 sequence: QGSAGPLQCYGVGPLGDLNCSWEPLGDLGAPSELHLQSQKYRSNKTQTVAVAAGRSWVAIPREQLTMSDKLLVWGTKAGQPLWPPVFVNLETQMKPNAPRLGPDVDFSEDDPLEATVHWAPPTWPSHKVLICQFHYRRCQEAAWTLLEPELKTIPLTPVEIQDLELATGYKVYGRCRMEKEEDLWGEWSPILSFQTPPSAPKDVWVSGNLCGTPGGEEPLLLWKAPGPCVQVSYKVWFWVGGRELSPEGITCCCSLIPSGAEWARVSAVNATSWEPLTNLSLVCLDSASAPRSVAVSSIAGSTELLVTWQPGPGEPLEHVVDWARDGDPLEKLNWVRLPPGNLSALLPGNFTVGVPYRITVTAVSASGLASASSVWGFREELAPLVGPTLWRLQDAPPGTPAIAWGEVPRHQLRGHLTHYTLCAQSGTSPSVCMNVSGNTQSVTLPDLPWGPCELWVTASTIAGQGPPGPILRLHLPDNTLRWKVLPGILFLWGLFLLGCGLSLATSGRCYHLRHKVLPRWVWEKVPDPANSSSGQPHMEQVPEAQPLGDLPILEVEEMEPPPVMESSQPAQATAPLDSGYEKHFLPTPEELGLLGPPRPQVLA

For assay [3], the target named is T3, Jupiter microtubule associated homolog 2 (human, UniProt Q9H910 1-190).
T3 construct: HuProt array protein, full-length recombinant from yeast; also called HN1L
T3 sequence: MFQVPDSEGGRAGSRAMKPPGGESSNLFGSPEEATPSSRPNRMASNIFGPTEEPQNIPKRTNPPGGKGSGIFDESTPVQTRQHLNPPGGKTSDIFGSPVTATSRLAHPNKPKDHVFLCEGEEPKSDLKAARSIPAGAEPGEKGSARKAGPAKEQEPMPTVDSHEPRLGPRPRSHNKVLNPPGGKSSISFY

A further assay concerns the target T4, BTB domain containing 8 (human, UniProt Q5XKL5 1-374, limits assumed).
T4 construct: HuProt array protein, full-length recombinant from yeast; also called BTBD8

Assay [4] addresses T5, HEAT repeat containing 3, transcript variant 1 (human, UniProt Q7Z4Q2 1-680).
T5 construct: also called HEATR3
T5 sequence: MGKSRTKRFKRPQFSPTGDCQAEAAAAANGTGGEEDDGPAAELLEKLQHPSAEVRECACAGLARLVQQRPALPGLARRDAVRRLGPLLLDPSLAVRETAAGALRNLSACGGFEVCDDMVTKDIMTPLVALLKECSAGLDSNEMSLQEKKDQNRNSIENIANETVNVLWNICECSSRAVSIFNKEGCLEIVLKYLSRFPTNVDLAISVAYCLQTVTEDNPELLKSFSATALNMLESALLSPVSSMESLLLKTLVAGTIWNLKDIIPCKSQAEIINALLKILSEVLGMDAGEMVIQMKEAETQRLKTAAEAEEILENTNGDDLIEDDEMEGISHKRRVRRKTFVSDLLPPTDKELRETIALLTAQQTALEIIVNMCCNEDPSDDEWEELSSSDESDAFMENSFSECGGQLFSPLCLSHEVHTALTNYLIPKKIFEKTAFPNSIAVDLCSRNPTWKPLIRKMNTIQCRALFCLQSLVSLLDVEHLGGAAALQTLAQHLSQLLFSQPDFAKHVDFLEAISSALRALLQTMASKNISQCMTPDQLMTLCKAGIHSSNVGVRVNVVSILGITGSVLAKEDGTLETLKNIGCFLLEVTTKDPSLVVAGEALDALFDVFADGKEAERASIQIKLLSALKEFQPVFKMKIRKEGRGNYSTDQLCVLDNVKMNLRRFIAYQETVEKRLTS

The next assay concerns the target T6, Deoxyhypusine synthase (human, UniProt P49366 1-369).
T6 construct: also called DHPS
T6 sequence: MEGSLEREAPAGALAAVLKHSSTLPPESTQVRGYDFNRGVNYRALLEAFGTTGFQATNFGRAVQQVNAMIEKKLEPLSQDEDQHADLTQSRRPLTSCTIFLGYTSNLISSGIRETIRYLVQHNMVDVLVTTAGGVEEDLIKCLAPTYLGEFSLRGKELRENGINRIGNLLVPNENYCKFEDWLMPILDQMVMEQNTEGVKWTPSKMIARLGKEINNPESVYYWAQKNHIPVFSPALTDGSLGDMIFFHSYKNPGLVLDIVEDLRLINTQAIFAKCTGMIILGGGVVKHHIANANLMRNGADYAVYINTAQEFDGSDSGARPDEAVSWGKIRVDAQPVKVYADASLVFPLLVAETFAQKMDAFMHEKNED

T1 sequence (Q15555 whole entry, change not shown): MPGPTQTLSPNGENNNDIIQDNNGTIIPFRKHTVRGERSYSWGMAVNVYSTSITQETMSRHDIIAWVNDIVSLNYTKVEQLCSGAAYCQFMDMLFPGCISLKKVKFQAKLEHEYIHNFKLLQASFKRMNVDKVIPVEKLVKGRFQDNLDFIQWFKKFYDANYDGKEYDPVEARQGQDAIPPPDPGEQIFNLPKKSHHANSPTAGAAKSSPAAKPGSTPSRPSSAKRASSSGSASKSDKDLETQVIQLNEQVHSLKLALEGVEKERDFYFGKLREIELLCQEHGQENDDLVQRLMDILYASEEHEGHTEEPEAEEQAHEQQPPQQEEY
T4 sequence (Q5XKL5 other isoform, or with tags, fused parts or gaps limits assumed): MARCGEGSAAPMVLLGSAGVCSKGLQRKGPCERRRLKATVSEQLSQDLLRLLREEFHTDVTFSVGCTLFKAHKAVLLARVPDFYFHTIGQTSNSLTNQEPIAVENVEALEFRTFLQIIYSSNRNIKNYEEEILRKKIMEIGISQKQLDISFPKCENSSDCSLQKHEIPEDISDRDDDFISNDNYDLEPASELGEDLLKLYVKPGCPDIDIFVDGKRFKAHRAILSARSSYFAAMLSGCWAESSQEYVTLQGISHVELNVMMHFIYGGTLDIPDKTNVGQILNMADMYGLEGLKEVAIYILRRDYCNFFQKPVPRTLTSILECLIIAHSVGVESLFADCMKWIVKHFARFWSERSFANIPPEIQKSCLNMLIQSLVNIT

B1: TMES1004 (antibody, V domains shown)
VH: QVQLVQSGAEVKKPGASVKISCKASGYTFTSHAIHWVRQAPGQTFEWLGWINPVNGVTKYSQTFQDRVTIVRDKSATTTYMDLSGLTFEDTAMYYCARVLDFYGSSVLDYWGQGTLVTVSS
VL: QSALTQPASVSGSPGQSITISCTGTSSDIGTYNLVSWYQQRPGKAPKLIIYDVIKRPSGISDRFSGSKSDNMASLTISGLQAEDEAHYYCCSYRSSTAPVVFGGGTKVTVL
Take B1: in assay [1], the binding result is given as “binds”.

B2: TOVA1002 (antibody, V domains shown)
VH: QVQLVESGGGVVQPGRSLRLSCAASGFTFSNFAMHWVRQAPGKGLEWVVVISSDGSNKNYADSVKGRFTISRDNSKNTLYLQMNSLRAEDTAVYYCARDLGVGSTTYWGQGTLVTVSS
VL: SYVLTQPPSVSVAPGQTARITCGGNNIGSKSVHWYQQKPGQAPVLVVYDDSDRPSGIPERFSGSNSGNTATLTISRVEAGDEADYYCQVWDGYSDPLVFGGGTKLTVLG
Regarding B2, the binding result in assay [2] is given as “binds”.

B3: TMES1002 (antibody, V domains shown)
VH: QVQVVESGGGLVKPGGSLRLSCAVSGLDFRDYYVNWIRQAPGKGLEWLSYITSPGGHTSYSDSVKGRFTISRDNAKNSVYLQMDSLTVEDTAVYFCAIKEGYGLSDWGQGTLVTVSS
VL: EIVLTQSPVTLSLSPGERATLSCRASQSVSSSYIAWYQQKPGQAPRLLIYGASTRATGIPDRFSGSGSGTDFTLTISRLEPEDCAVFYCQQYGSSHYTFGQGTKLEIKR
notes: detected with anti-human IgG Fc
For B3, the binding result (in assay [3]; in the assay with BTB domain containing 8) was “binds” each time.

B4: TOVA1004 (antibody, V domains shown)
VH: EVQLVESGGGLVKPGGSLRLSCAASGFTFSSYSMNWVRQAPGKGLEWVSSISSSSSYIYYADSVKGRFTISRDNAKNSLYLQMNSLRAEDTAVYYCARDRGVVVVAATPYYYGMDVWGQGTTVTVSS
VL: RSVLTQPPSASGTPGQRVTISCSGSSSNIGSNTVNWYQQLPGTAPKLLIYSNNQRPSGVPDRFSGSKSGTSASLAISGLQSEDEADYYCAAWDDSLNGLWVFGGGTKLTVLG
Take B4: the binding result in assay [4] is “binds”.

B5: TOVA1003 (antibody)
VH: GEQLLESGGGLVQPGGSLRLSCAASGFTFSHYAMTWVRQAPGKGLEWVSGVSGSGFTTYYADSVKGRFTISRDNAQNTLYLHMNSLRAEDTAIYYCVKDLEVSIGHNFDFWGQGTLVTVSSASTKGPSVFPLAPSSKSTSGGTAALGCLVKDYFPEPVTVSWNSGALTSGVHTFPAVLQSSGLYSLSSVVTVPSSSLGTQTYICNVNHKPSNTKVDKRV
VL: EVQMTQSPSSLSASVGDRVTITCRASQHIAGRLNWYQQKPGKAPKLLIHSASSVQREVPSRFGGSGFGTDFTLTIYSLQAEDFATYFCQQSYYTPPTFAGGTRVDLKRTVAAPSVFIFPPSDEQLKSGTASVVCLLNNFYPREAKVQWKVDNALQSGNSQESVTEQDSKDSTYSLSSTLTLSKADYEKHKVYACEVTHQGLSSPVTKSFNRGEC
For B5, in the assay with Deoxyhypusine synthase, the binding result is recorded as “binds”.
